Experimental findings from patent US20250074982A1 (CITY OF HOPE, published 2025) are described below.

The assay deals with CS1 on MM.1S multiple myeloma cells (human, UniProt Q9NQ25 23-335). The assay is described as follows: cell-based or functional assay.

B1: CS1-dbBiTE (anti-CS1-huOKT3 dual specific bivalent T-cell engager: intact elotuzumab clicked to intact humanized OKT3 at their reduced hinge regions) (bispecific antibody, human IgG1, kappa)
heavy: not shown
light: DIQMTQSPSSLSASVGDRVTITCKASQDVGIAVAWYQQKPGKVPKLLIYWASTRHTGVPDRFSGSGSGTDFTLTISSLQPEDVATYYCQQYSSYPYTFGQGTKVEIKRTVAAPSVFIFPPSDEQLKSGTASVVCLLNNFYPREAKVQWKVDNALQSGNSQESVTEQDSKDSTYSLSSTLTLSKADYEKHKVYACEVTHQGLSSPVTKSFNRGEC
VH: QLVQSGGGVVQPGRSLRLSCKASGYTFTRYTMHWVRQAPGKGLEWIGYINPSRGYTNYNQKVKDRFTISTDKSKSTAFLQMDSLRPEDTAVYYCARYYDDHYCLDYWGQGTPVTV
VL: DIQMTQSPSSLSASVGDRVTITCSASSSVSYMNWYQQTPGKAPKRWIYDTSKLASGVPSRFSGSGSGTDYTFTISSLQPEDIATYYCQQWSSNPFTFGQGTKLQITR
modifications: one PEG5-N3 per light chain; reduced cysteines of the heavy chain alkylated with bromoacetamide-PEG5-N3, an average of 3 PEG5-N3/heavy chain; one DBCO/light chain (bromoacetamido-DBCO on reduced cysteine); reduced cysteines alkylated with bromoacetamido-DBCO, an average of 3 DBCO/heavy chain; clicked to PEG5-N3 on huOKT3
With B1, the “IFN-γ and TNF-α positive cells detected by intracellular cytokine staining” value is above 2 fold.
